The text below walks through data of paper PMC6818471.

The nature of series [1]: confocal immunofluorescence, HEK 293T. As to conditions: glycan lost; control: wild type GLUT9b.
A short description of series [2]: [14C]-urate uptake, polarized or depolarized oocytes. The following applies: glycan lost.
Series [3] in a line: [14C]-urate uptake, oocytes co-expressing ITM2B. The following applies: glycan lost.
Series [4] is described as follows: [14C]-urate uptake, oocytes co-expressing TMEM85. The following applies: glycan lost.

B1: GLUT9b: N61Q (protein)
parent chain: MKLSKKDRGEDEESDSAKKKLDWSCSLLVASLAGAFGSSFLYGYNLSVVNAPTPYIKAFYNESWERRHGRPIDPDTLTLLWSVTVSIFAIGGLVGTLIVKMIGKVLGRKHTLLANNGFAISAALLMACSLQAGAFEMLIVGRFIMGIDGGVALSVLPMYLSEISPKEIRGSLGQVTAIFICIGVFTGQLLGLPELLGKESTWPYLFGVIVVPAVVQLLSLPFLPDSPRYLLLEKHNEARAVKAFQTFLGKADVSQEVEEVLAESRVQRSIRLVSVLELLRAPYVRWQVVTVIVTMACYQLCGLNAIWFYTNSIFGKAGIPPAKIPYVTLSTGGIETLAAVFSGLVIEHLGRRPLLIGGFGLMGLFFGTLTITLTLQDHAPWVPYLSIVGILAIIASFCSGPGGIPFILTGEFFQQSQRPAAFIIAGTVNWLSNFAVGLLFPFIQKSLDTYCFLVFATICITGAIYLYFVLPETKNRTYAEISQAFSKRNKAYPPEEKIDSAVTDGKINGRP
For the protein B1, in series [1], the localisation_or_trafficking result was “no change”. Also, the “other: transport activity” value in series [2] (control: wild type GLUT9b) is “no change”. The “other: inhibition of urate uptake by ITM2B, other: percent inhibition of uptake” value in series [3] (control: wild type GLUT9b) is reported as “no change, ∼65–70 vs 65–70”. In addition, the “other: inhibition of urate uptake by TMEM85” value in series [4] (control: wild type GLUT9b) was “no change”.

B2: GLUT9a: N90Q (protein)
parent chain: MARKQNRNSKELGLVPLTDDTSHAGPPGPGRALLECDHLRSGVPGGRRRKDWSCSLLVASLAGAFGSSFLYGYNLSVVNAPTPYIKAFYNESWERRHGRPIDPDTLTLLWSVTVSIFAIGGLVGTLIVKMIGKVLGRKHTLLANNGFAISAALLMACSLQAGAFEMLIVGRFIMGIDGGVALSVLPMYLSEISPKEIRGSLGQVTAIFICIGVFTGQLLGLPELLGKESTWPYLFGVIVVPAVVQLLSLPFLPDSPRYLLLEKHNEARAVKAFQTFLGKADVSQEVEEVLAESRVQRSIRLVSVLELLRAPYVRWQVVTVIVTMACYQLCGLNAIWFYTNSIFGKAGIPPAKIPYVTLSTGGIETLAAVFSGLVIEHLGRRPLLIGGFGLMGLFFGTLTITLTLQDHAPWVPYLSIVGILAIIASFCSGPGGIPFILTGEFFQQSQRPAAFIIAGTVNWLSNFAVGLLFPFIQKSLDTYCFLVFATICITGAIYLYFVLPETKNRTYAEISQAFSKRNKAYPPEEKIDSAVTDGKINGRP
As to B2, the “other: transport activity” value in series [2] (control: wild type GLUT9a) is on record as “no change”. Also, the “other: inhibition of urate uptake by ITM2B, other: percent inhibition of uptake” value in series [3] (control: wild type GLUT9a) is reported as “no change, ∼65–70 vs 65–70”. Also, in series [4] (control: wild type GLUT9a), the “other: inhibition of urate uptake by TMEM85” value is on record as “no change”.
